This is an account of results in publication PMC6297230, “Structural basis of meiotic telomere attachment to the nuclear envelope by MAJIN-TERB2-TERB1” (Nature Communications, 2018).

What all share (test): EMSA
What all share (conditions): apparent, Hill fit; EMSA: 20 mM Tris pH 8.0, 250 mM KCl, 1 h at 4 °C, 3% glycerol, 0.5% agarose in 0.5x TBE; 25 nM FAM-DNA for Kd (protein as oligomer), 0.3 uM DNA for display

Data set [1] addresses MAJIN Core;TERB2 C (human;human) (UniProt Q3KP22+Q8NHR7).
The target in data set [2] is MAJIN Core;TERB2 full length;TERB1 TRFB (human;human;human) (UniProt Q3KP22+Q8NHR7+Q8NA31).
MAJIN Core;TERB2 full length;TERB1 TRFB (human;human;human), sequence (Q3KP22 whole entry, chain 1 of 3): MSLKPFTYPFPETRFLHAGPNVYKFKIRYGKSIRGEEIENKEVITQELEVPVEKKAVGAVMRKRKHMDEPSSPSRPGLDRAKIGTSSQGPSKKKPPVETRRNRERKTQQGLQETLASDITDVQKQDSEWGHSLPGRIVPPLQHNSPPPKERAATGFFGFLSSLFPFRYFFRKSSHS
MAJIN Core;TERB2 full length;TERB1 TRFB (human;human;human), sequence (Q8NHR7 whole entry, chain 2 of 3): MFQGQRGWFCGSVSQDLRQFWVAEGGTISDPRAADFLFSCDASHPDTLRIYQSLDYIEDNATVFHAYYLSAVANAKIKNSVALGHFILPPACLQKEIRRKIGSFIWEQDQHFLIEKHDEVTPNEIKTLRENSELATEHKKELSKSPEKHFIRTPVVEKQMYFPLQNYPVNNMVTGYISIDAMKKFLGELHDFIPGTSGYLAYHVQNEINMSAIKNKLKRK
MAJIN Core;TERB2 full length;TERB1 TRFB (human;human;human), sequence (Q8NA31 561-658, chain 3 of 3): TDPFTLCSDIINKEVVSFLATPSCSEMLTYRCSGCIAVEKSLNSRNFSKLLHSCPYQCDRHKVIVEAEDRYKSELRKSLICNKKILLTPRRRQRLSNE
The target of data set [3] is MAJIN dTM;TERB2 C (human;human) (UniProt Q3KP22+Q8NHR7).
MAJIN dTM;TERB2 C (human;human), sequence (Q3KP22 whole entry, chain 1 of 2): as the sequence (Q3KP22 whole entry, chain 1 of 3) above
MAJIN dTM;TERB2 C (human;human), sequence (Q8NHR7 168-220, chain 2 of 2): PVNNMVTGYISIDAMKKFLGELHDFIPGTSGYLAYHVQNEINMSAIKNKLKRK
For data set [4], the target named is MAJIN dTM;TERB2 C-Tr (human;human) (UniProt Q3KP22+Q8NHR7).
MAJIN dTM;TERB2 C-Tr (human;human), sequence (Q3KP22 whole entry, chain 1 of 2): as the sequence (Q3KP22 whole entry, chain 1 of 3) above
MAJIN dTM;TERB2 C-Tr (human;human), sequence (Q8NHR7 168-207, chain 2 of 2): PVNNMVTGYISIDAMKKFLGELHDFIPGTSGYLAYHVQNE

MAJIN Core;TERB2 C (human;human), sequence (Q3KP22 whole entry, chain 1 of 2): as the sequence (Q3KP22 whole entry, chain 1 of 3) above
MAJIN Core;TERB2 C (human;human), sequence (Q8NHR7 168-220, chain 2 of 2): as the sequence (Q8NHR7 168-220, chain 2 of 2) above

As to “AATTCTCATTTTACTTACCGGACGCTATTAGCAGTGGCAGATTGTACTGAGAGTGCACCATATGCGGTGTGAAATACCGCACAGATGCGT [Random ssDNA (90 nt)]”, the Kd in data set [1] stood at 900 nM. Turning to “TTAGGGTTAGGGTTAGGGTTAGGGTTAGGGTTAGGGTTAGGGTTAGGGTTAGGGCGACGACCCTAACCCTAACCCTAACCCTAACCCTAACCCTAACCCTAACCCTAACCCTAA [Telomeric hairpin DNA (54 bp)]”, in data set [1], the Kd was 610 nM. As for “TTCCAGGGTTCCATGGAGATAAAGGTCAATAAATTAGAGTTAGAACTAGAAAGTGCCAAACAGAAATTTGGAGAAATCACAGACACCTATCAGAAAGAAATTGAGGACAAAAAGATATCAGAATAATAACCATGGATATCGAATT (double strand) [FAM random dsDNA (145 bp)]”, the Kd in data set [1] is 550 nM; in data set [2] it was 460 nM; in data set [3], 120 nM; in data set [4], 200 nM. “TTTTTTTTTTTTTTTTTTTTTTTTTTTTTTTTTTTTTTTTTTTTTTTTTTTTTTTTTTTTTTTTTTTTTTTTTTTTTTTTTTTTTTTTTTTTTTTTTTTT [Poly(dT) (100 nt)]”: in data set [1], the Kd amounted to 510 nM.
